Target: human BAFF-R-GFP fusion protein expressed on the surface of mouse fibroblast (L) cells, clone D2C (human) (UniProt Q96RJ3)
Test: cell ELISA of hybridoma supernatant on (h)BAFF-R-expressing cells, anti-mouse IgG-HRP; same clone on parental L cell: 0.102

OD 450 nm: 1.07 OD 450 nm
B1: mouse monoclonal antibody from hybridoma Clone 55 (antibody, V domains shown)
VH: QVTLKESGPGILKPSQTLSLTCSFSGFSLSTSGMGVGWIRQPSGKGLEWLAHIWWDDDKYYNSSLKSHLTISKDTSRNQVFLKITSVDTADTATYYCARSFGYGLDYWGQGTTLTVSS
VL: DIQMTQTTSSLSASLGDRVTISCSASQDISNYLNWYQQKPDGTVKLLIYYTSSLHSGVPSRFSGSGSGTDYSLTISSLEPEDIATYYCHQFSELPWTFGGGTKLEIK

From patent US11161908
